Assay results from paper PMC6232587, “Human RNA cap1 methyltransferase CMTr1 cooperates with RNA helicase DHX15 to modify RNAs with highly structured 5′ termini” (Philosophical Transactions of the Royal Society B: …, 2018).

B1: CMTr1 full-length, purified from insect cells (enzyme, human, UniProt Q8N1G2 1-835, looked up)
chain: MKRRTDPECTAPIKKQKKRVAELALSLSSTSDDEPPSSVSHGAKASTTSLSGSDSETEGKQHSSDSFDDAFKADSLVEGTSSRYSMYNSVSQKLMAKMGFREGEGLGKYSQGRKDIVEASSQKGRRGLGLTLRGFDQELNVDWRDEPEPSACEQVSWFPECTTEIPDTQEMSDWMVVGKRKMIIEDETEFCGEELLHSVLQCKSVFDVLDGEEMRRARTRANPYEMIRGVFFLNRAAMKMANMDFVFDRMFTNPRDSYGKPLVKDREAELLYFADVCAGPGGFSEYVLWRKKWHAKGFGMTLKGPNDFKLEDFYSASSELFEPYYGEGGIDGDGDITRPENISAFRNFVLDNTDRKGVHFLMADGGFSVEGQENLQEILSKQLLLCQFLMALSIVRTGGHFICKTFDLFTPFSVGLVYLLYCCFERVCLFKPITSRPANSERYVVCKGLKVGIDDVRDYLFAVNIKLNQLRNTDSDVNLVVPLEVIKGDHEFTDYMIRSNESHCSLQIKALAKIHAFVQDTTLSEPRQAEIRKECLRLWGIPDQARVAPSSSDPKSKFFELIQGTEIDIFSYKPTLLTSKTLEKIRPVFDYRCMVSGSEQKFLIGLGKSQIYTWDGRQSDRWIKLDLKTELPRDTLLSVEIVHELKGEGKAQRKISAIHILDVLVLNGTDVREQHFNQRIQLAEKFVKAVSKPSRPDMNPIRVKEVYRLEEMEKIFVRLEMKIIKGSSGTPKLSYTGRDDRHFVPMGLYIVRTVNEPWTMGFSKSFKKKFFYNKKTKDSTFDLPADSIAPFHICYYGRLFWEWGDGIRVHDSQKPQDQDKLSKEDVLSFIQMHRA
B2: Recombinant DHX15 with His-tag (enzyme, human, UniProt O43143 1-795, looked up)
chain: MSKRHRLDLGEDYPSGKKRAGTDGKDRDRDRDREDRSKDRDRERDRGDREREREKEKEKELRASTNAMLISAGLPPLKASHSAHSTHSAHSTHSTHSAHSTHAGHAGHTSLPQCINPFTNLPHTPRYYDILKKRLQLPVWEYKDRFTDILVRHQSFVLVGETGSGKTTQIPQWCVEYMRSLPGPKRGVACTQPRRVAAMSVAQRVADEMDVMLGQEVGYSIRFEDCSSAKTILKYMTDGMLLREAMNDPLLERYGVIILDEAHERTLATDILMGVLKEVVRQRSDLKVIVMSATLDAGKFQIYFDNCPLLTIPGRTHPVEIFYTPEPERDYLEAAIRTVIQIHMCEEEEGDLLLFLTGQEEIDEACKRIKREVDDLGPEVGDIKIIPLYSTLPPQQQQRIFEPPPPKKQNGAIGRKVVVSTNIAETSLTIDGVVFVIDPGFAKQKVYNPRIRVESLLVTAISKASAQQRAGRAGRTRPGKCFRLYTEKAYKTEMQDNTYPEILRSNLGSVVLQLKKLGIDDLVHFDFMDPPAPETLMRALELLNYLAALNDDGDLTELGSMMAEFPLDPQLAKMVIASCDYNCSNEVLSITAMLSVPQCFVRPTEAKKAADEAKMRFAHIDGDHLTLLNVYHAFKQNHESVQWCYDNFINYRSLMSADNVRQQLSRIMDRFNLPRRSTDFTSRDYYINIRKALVTGYFMQVAHLERTGHYLTVKDNQVVQLHPSTVLDHKPEWVLYNEFVLTTKNYIRTCTDIKPEWLVKIAPQYYDMSNFPQCEAKRQLDRIIAKLQSKEYSQY
notes: ATP-dependent RNA helicase DHX15, human, from the full-length cDNA, cloned into pET28; The cloning paragraph says C-terminal His-tag; also called His-DHX15; DHX15 helicase; not shown: His-tag, C-terminal, kept

How the values were obtained:
[1] = molecular target: B2; test: cell-based or functional assay
[2] = molecular target: B1; test: pull-down; purified His-DHX15 and CMTr1 mixed in BDHX buffer (20 mM Tris-HCl pH 8, 70 mM KCl, 3 mM MgCl2, 5 mM DTT, 100 µM ATP), on ice for 10 min; complexes captured on nickel-charged agarose beads; conditions: both partners purified

| Binder | CMTr1 methyltransferase activity towards RNA92 and RNA68 substrates with equimolar DHX15, in comparison with CMTr1 alone [1] | binding result [2] |
| --- | --- | --- |
| B1 | > 3 fold | – |
| B2 | – | binds |
